The values below come from paper PMC11367474, “Two-metal ion mechanism of DNA cleavage by activated, filamentous SgrAI”.

One data set has as its target T1, SgrAI WT (UniProt Q9F6L0 1-339).
T1 sequence: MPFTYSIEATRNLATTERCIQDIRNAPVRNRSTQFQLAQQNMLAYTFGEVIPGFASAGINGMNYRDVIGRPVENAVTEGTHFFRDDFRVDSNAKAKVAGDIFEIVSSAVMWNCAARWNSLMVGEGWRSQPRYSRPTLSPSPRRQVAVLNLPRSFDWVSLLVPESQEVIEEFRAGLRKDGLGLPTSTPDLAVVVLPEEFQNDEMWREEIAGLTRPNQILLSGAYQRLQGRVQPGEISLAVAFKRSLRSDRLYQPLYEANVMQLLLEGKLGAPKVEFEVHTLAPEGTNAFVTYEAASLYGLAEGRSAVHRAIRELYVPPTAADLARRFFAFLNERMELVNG
As to the kind of experiment: cryo-EM structure (3.1 A); Mg2+ in sites A and B; filament; DNA cleaved at the scissile phosphate during 1.5 h incubation (product complex); Cryo-EM samples: buffer containing MgCl2, room temperature (30 min for K242A, 1.5 h for WT); full buffer, salt and pH not in the material. The note with it: protein: recombinant; tags: His tag implied (HisTrap purification); chain copies: 2; blunt.

The next data set addresses T2, SgrAI K242A (UniProt Q9F6L0 1-339, K242A;L336K).
T2 sequence: T1 sequence with K242A, L336K
As to the kind of experiment: cryo-EM structure (3.3 A); Mg2+ in sites A and B; filament; DNA uncleaved; 30 min at room temperature; Cryo-EM samples: buffer containing MgCl2, room temperature (30 min for K242A, 1.5 h for WT); full buffer, salt and pH not in the material. Particulars: protein: recombinant; tags: His tag implied (HisTrap purification); chain copies: 2; blunt.

Positions count from the first letter of the chain named.

B1: 40-1 (dsDNA)
DNA 1: GATGCGTGGGTCTTCACACCGGTGGATGCGTGGGTCTTCA
DNA 2: TGAAGACCCACGCATCCACCGGTGTGAAGACCCACGCATC
B1: the binding result with SgrAI WT and with SgrAI K242A was “binds” in each case.
